Reference: paper doi:10.1101/2023.01.08.523187 (bioRxiv, 2023)

Key:
Canine HER2 = Canine HER2 (Canis lupus familiaris, UniProt O18735); experiment: SPR
[1] = target: HER2 on HER2+ SK-OV-3 ovarian cancer cells (Homo sapiens, SK-OV-3 cells, UniProt P04626); experiment: ELISA
[2] = target: Wildtype HER2 domain IV fragment (residues 510-629 of human HER2) (Homo sapiens, UniProt P04626); experiment: SPR

B1: Candidate 2 (de novo designed HCDR3, IgG1 mAb) (antibody, V domains shown)
VH: EVQLVESGGGLVQPGGSLRLSCAASGFNIKDTYIHWVRQAPGKGLEWVARIYPTNGYTRYADSVKGRFTISADTSKNTAYLQMNSLRAEDTAVYYCARYYYGFYYFDYWGQGTLVTVSS
VL: not shown
binding result (Canine HER2): binds | fold change of EC50 against trastuzumab [1]: ~3 fold

B2: Candidate 3 (de novo designed HCDR3, IgG1 mAb) (antibody, V domains shown)
VH: EVQLVESGGGLVQPGGSLRLSCAASGFNIKDTYIHWVRQAPGKGLEWVARIYPTNGYTRYADSVKGRFTISADTSKNTAYLQMNSLRAEDTAVYYCARWGNYYYYMDYWGQGTLVTVSS
VL: not shown
binding result [2]: binds
